From US20240368233A1 (University of Washington, published 2024)
“And” between values parts separate entries of the source, which are not always exact repeats. Equal values may be shown once.

Assays:
284B = target: T1, 284B; experiment: SEC binding assay (Superdex 200, normalised A230) of A, B and the mixture AB
T1 construct: also called LHD284 B; LHD284 chainB
T1 chain: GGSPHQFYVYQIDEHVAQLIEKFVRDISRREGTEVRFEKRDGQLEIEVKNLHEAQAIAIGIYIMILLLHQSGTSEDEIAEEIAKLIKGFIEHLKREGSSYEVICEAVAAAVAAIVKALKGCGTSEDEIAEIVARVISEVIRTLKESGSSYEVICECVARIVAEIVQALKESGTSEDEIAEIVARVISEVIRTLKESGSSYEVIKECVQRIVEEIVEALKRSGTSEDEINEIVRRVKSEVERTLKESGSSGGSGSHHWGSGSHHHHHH
Protocol: (§1) Complexes and individual components were diluted in 20 mM Tris pH 8.0, 100 mM NaCl. After o/n equilibration of the mixtures at room temperature or 4 degrees C., 500 ul of sample was injected onto a Superdex™ 200 10/300 increase GL (dimers, linear assemblies) or Superose™ 6 increase 10/300 GL (symmetric assemblies) (all columns from GE healthcare) using the absorbance at 230 nm or 473 nm (for GFP tagged components) as read-out. Dimers were mixed at monomer concentrations of 5 μM or higher. Trimer and ABCD tetramer mixtures contained 5 μM of the bivalent connector, and 7.5 μM of each terminal cap (lower absolute concentrations with the same ratios were used for some trimers). ABCA tetramer mixtures contained 5 μM per bivalent connector and 15 μM terminal cap. The hexamer mixture contained 3 μM of components C and D, 3.6 μM of B and E, and 4.4 μM of A and F. The branched assembly shown in FIG. 4A contained 2.8 μM of the trivalent connector and 4 μM of each cap. For the exchange experiment shown in FIG. 5A, the ABC trimer was preincubated at concentrations of 6 μM B and 9 μM each of A and C. C′ was then added to reach a final concentration of 2 μM B, 3 μM each of A and C, and 6 μM C′.

DF206 = target: T2, DF206; experiment: SEC of mixed components; trimer listed in Table 6
T2 construct: Bivalent connector
T2 chain: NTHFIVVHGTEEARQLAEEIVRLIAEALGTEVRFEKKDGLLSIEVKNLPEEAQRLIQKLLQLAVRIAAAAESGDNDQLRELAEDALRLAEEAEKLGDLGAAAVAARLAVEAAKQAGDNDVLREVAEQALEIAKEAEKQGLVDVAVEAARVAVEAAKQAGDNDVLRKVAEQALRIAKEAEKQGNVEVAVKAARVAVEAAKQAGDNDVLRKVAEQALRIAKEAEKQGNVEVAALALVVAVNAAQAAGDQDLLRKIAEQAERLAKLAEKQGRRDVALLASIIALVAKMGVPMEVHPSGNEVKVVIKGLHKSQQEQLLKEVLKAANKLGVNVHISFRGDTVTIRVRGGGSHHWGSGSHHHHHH

206B62-2 = target: T3, 206B62-2; experiment: SEC binding assay (Superdex 200, normalised A230) of A, B and the mixture AB
T3 chain: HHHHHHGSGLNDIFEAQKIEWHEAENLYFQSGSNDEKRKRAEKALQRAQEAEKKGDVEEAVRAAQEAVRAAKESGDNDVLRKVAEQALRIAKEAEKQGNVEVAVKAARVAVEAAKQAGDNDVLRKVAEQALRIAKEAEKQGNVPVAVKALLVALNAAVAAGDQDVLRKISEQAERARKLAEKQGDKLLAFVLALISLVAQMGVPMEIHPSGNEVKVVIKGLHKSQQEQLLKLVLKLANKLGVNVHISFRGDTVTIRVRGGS
Protocol: as §1

LHD206 B62-1 = target: T4, LHD206 B62-1; experiment: as above
T4 single chain, LHD206 chain B fused to DHR62: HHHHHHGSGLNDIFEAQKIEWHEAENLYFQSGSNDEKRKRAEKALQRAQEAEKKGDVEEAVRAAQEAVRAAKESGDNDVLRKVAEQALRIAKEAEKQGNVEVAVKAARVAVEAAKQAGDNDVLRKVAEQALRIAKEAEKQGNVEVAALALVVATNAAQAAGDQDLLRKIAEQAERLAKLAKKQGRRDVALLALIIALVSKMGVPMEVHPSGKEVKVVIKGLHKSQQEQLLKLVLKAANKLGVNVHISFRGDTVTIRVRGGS
Protocol: as §1

[1] = target: the molecule itself; experiment: SEC titration of the protomer alone at several injection concentrations (Superdex 200, normalised A230); self-association
101B82 = target: T5, 101B82; experiment: SEC binding assay (Superdex 200, normalised A230) of A, B and the mixture AB
T5 chain: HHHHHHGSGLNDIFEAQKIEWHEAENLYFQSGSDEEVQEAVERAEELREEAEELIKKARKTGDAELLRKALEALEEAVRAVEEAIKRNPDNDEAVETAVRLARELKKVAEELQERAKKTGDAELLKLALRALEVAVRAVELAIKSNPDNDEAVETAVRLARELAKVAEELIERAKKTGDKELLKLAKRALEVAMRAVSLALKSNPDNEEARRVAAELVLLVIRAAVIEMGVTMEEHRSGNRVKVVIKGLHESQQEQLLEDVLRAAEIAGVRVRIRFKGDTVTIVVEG
Protocol: as §1

101B62 = target: T6, 101B62; experiment: as above
T6 construct: also called LHD101B62
T6 chain: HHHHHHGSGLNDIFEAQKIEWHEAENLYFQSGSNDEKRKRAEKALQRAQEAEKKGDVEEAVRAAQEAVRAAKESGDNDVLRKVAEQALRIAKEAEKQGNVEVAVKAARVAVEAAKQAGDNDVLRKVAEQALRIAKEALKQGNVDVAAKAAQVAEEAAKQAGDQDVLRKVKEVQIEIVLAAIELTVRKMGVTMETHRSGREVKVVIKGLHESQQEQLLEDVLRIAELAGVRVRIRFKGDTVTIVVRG
Protocol: as §1

101B14 = target: T7, 101B14; experiment: as above
T7 construct: also called LHD101 B14
T7 single chain, LHD101 chain B fused to DHR14: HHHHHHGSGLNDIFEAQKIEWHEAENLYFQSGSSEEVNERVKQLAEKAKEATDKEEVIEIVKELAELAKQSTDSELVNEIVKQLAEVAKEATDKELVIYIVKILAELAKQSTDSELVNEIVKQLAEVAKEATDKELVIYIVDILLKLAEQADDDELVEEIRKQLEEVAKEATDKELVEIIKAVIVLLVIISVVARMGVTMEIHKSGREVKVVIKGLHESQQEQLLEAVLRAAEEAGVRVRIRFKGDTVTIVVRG
Protocol: as §1

LHD101 B8 = target: T8, LHD101 B8; experiment: as above
T8 single chain, LHD101 chain B fused to DHR8: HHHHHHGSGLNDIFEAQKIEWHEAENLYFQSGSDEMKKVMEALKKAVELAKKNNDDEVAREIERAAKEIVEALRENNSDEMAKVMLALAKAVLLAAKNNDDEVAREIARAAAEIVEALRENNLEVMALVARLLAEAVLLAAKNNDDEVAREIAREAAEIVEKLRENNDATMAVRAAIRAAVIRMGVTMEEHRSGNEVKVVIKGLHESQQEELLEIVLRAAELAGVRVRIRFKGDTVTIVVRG
Protocol: as §1

101B4 = target: T9, 101B4; experiment: as above
T9 construct: also called LHD101B4
T9 chain: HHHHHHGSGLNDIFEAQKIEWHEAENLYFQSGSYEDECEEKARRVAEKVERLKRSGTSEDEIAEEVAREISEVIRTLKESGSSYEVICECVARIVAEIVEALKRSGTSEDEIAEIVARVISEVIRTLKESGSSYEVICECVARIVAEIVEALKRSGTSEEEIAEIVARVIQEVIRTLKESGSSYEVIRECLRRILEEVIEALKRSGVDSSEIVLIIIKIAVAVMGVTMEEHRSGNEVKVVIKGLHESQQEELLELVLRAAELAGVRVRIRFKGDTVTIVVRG
Protocol: as §1

LHD101 chainB = target: T10, LHD101 chainB; experiment: BLI steady-state titration, biotinylated unfused LHD101B on a streptavidin sensor
T10 construct: also called LHD101B
T10 chain: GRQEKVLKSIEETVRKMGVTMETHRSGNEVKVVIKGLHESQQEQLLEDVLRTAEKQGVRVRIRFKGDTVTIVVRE
Protocol: Biolayer interferometry experiments were performed on an OctetRED96 BLI system (ForteBio, Menlo Park, CA). Streptavidin coated biosensors were first equilibrated for at least 10 minutes in Octet buffer (10 mM HEPES pH 7.4, 150 mM NaCl, 3 mM EDTA, 0.05% Surfactant P20) supplemented with 1 mg/ml Bovine Serum Albumin (SigmaAldrich). Enzymatically biotinylated designs were immobilized onto the biosensors by dipping the biosensors into a solution with 10-50 nM protein for 30-120 s. This was followed by dipping in fresh octet buffer to establish a baseline for 120 s. Titration experiments were performed at 25° C. while rotating at 1,000 r.p.m. Association of designs was allowed by dipping biosensors in solutions containing designed protein diluted in octet buffer until equilibrium was approached followed by dissociation by dipping the biosensors into fresh buffer solution in order to monitor the dissociation kinetics. Steady-state and global kinetic fits were performed using the manufacturer's software (Data Analysis 9.1) assuming a 1:1 binding model.

[2] = target: T11, LHD101 chainA, split luciferase reporter construct; experiment: split luciferase equilibrium titration in E. coli lysate, constant partner at 1 nM; first-named construct read as the titrated one; no unit beside the number, M from the axis '[Titrated] / M'
T11 construct: not shown: N-terminal Strep-tag and sfGFP; GS-linker and smBiT or lgBiT
T11 chain: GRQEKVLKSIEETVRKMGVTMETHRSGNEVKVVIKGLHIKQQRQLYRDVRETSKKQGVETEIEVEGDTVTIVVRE

29B53 = target: T12, 29B53; experiment: SEC titration (Superdex 200, normalised A230) of the complexes 274A53/274B53 and 29A53/29B53
T12 construct: also called LHD29B53
T12 chain: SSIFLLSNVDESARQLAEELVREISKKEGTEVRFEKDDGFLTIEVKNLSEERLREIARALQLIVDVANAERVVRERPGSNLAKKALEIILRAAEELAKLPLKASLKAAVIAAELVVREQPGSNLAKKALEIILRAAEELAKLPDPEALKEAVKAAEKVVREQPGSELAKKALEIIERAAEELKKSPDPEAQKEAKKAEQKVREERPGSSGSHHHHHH

B1: 284A82 (designed binder)
chain: HHHHHHGSGLNDIFEAQKIEWHEAENLYFQSGSDEEVQEAVERAEELREEAEELIKKARKTGDAELLRKALEALEEAVRAVEEAIKRNPDNDEAVETAVRLARELKKVAEELQERAKKTGDAELLKLALRALEVAVRAVELAIKSNPDNDEAVETAVRLAKELLKVAILLAKRAQETGDKELEKLARRALEVAKRAVELAIKSNPDNKEARILKLLLELAELLIELALRGTIIIVEVHINGERQTKYLILAPVEELLKHLERIEEKIKREGASEVEVKVTSGGTTWTFNIKGS
notes: also called LHD284 A DHR82 N
binding result (284B): binds

B2: 206A54 (designed binder)
chain: HHHHHHGSGLNDIFEAQKIEWHEAENLYFQSGSTEDERRELEKVARKAIEAAREGNTDEVREQLQRALEIARESGTTEAVKLALEVVARVAIEAARRGNTDAVREALEVALEIARESGTTEAVKLALEVVARVAIEAARRGNTDAVREALAVAVKIALKSGTEEAFRLAKEVIKRVSDEAKKQGNEDAVKEAESFDAAAELILSLLKLFRELHERGTEIVVEVHINGRKTEIEVQGIDKRLLQIILEVIIEEIAREGPDKVEVNVHSGGQTWTFRYGGS
binding result (DF206): binds | binding result (206B62-2): binds | binding result (LHD206 B62-1): binds

B3: 101A21 (designed binder)
chain: HHHHHHGSGLNDIFEAQKIEWHEAENLYFQSGSSEKEKVEELAQRIREQLPDTELAREAQELADEARKSDDSEALKVVYLALRIVQQLPDTELAREALELAKEAVKSTDSEKLKVVYLALRVVQQLPDTEEARKALEIAKEAVKADAQILLAIARAVLKMGVEMEVHPSGNEVKVVIKGLHIKQQRQLYRDVREAAKKAGVEVEIEVEGDTVTIVVRE
binding result [1]: no binding | binding result (101B82): binds | binding result (101B62): binds | binding result (101B14): binds | binding result (LHD101 B8): binds | binding result (101B4): binds | binding result (LHD101 chainB): binds

B4: LHD101 chainB, split luciferase reporter construct (designed binder)
chain: T10 chain
notes: not shown: N-terminal Strep-tag and sfGFP; GS-linker and smBiT or lgBiT
Kd [2]: 8 nM and 11 nM

B5: 29A53 (designed binder)
chain: TWQWVLINISEEARQLIEKAVRAISKKEGTEVHFEKDDGVLHIRVKNLHEKRAREIHKVAKLILEVAAAERIVRERPGSNLAKKALEIILRAAEELAKADVDAALEAAVRAAEKVVREQPGSNLAKKALEIILRAAEELAKLPDPEALKEAVKAAEKVVREQPGSELAKKALEIIERAAEELKKSPDPEAQKEAKKAEQKVREERPGSSGSHHHHHH
notes: also called LHD29A53
binding result [1]: binds | binding result (29B53): binds
